The text below walks through data of patent US20200010853, “METHOD FOR INSERTING DESIRED DNA FRAGMENT INTO SITE LOCATED ADJACENT TO BINDING DOMAIN OF DNA-BINDING PROTEIN” (KYUSHU UNIVERSITY, NATIONAL UNIVERSITY CORPORATION, published 2020).

The data set addresses Tn5 transposase (UniProt Q46731 Q46731:1-476). Nature of the data set: free adaptor added to Tn5 in fixed cells; integration with 5 mM MgCl2, 37 C; binding not measured separately. Particulars: chain copies: 2; partial duplex with 5' overhang. The procedure: Subsequently, TN5 transposase was added to the sample at a concentration of 85 μg/mL, and incubated at room temperature for 10 minutes. Thereby, transposase was bound to the transposase-binding sequence in the DNA fragment labeled to the nucleic acid-labeled secondary antibody.
Subsequently, a free DNA fragment (hereinafter, referred to as “oligo3-4”) having a transposase-binding sequence was added to the sample, reacted at room temperature for 1 hour, and then washed with PBS. The oligo3-4 was obtained by annealing a DNA fragment having a base sequence described in the Seq ID No. 3 and a DNA fragment having a base sequence described in the Seq ID No. 4. A double stranded DNA domain of the oligo3-4 was a binding sequence of TN5 transposase.

Tn5 transposase, sequence (Q46731 whole entry, the tested form may be a part, one chain of several): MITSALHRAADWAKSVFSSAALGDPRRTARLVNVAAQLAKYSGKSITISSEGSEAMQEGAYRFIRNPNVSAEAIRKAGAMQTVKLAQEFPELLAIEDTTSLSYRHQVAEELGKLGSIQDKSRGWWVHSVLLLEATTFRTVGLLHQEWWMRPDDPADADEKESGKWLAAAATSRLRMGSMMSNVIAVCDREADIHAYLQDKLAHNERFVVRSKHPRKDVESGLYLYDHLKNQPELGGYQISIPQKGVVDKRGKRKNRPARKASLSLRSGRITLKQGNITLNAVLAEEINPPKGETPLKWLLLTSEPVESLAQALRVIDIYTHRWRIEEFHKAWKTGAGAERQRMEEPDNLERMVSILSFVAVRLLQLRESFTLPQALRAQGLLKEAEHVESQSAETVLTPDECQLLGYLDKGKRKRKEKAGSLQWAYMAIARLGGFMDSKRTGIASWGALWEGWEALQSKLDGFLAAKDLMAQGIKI

B1: oligo3-4 free Tn5 adaptor (mixed)
DNA 1: GTCTCGTGGGCTCGGAGATGTGTATAAGAGACAG
DNA 2: CTGTCTCTTATACACATCT
In the case of B1, the binding result is “binds”.
